Square brackets hold non-standard residues; d marks the D form. Ends that are not written are not given here. Peptide text beside a SMILES is read from it. * marks the point of attachment. Piperazin2one(3S-Bu,6R-CO) = CCCC[C@@H]1NC[C@H](C(=O)*)NC1=O; X1 = N=C(N)NCCC[C@H]1C(=O)N[C@@H](C(N)=O)CN1*; keto‑piperazine surrogate = not defined here; Nle = CCCC[C@H](N)C(=O)O
T1: human natriuretic peptide receptor A (human, UniProt P16066 33-1061)
T1 sequence (looked up): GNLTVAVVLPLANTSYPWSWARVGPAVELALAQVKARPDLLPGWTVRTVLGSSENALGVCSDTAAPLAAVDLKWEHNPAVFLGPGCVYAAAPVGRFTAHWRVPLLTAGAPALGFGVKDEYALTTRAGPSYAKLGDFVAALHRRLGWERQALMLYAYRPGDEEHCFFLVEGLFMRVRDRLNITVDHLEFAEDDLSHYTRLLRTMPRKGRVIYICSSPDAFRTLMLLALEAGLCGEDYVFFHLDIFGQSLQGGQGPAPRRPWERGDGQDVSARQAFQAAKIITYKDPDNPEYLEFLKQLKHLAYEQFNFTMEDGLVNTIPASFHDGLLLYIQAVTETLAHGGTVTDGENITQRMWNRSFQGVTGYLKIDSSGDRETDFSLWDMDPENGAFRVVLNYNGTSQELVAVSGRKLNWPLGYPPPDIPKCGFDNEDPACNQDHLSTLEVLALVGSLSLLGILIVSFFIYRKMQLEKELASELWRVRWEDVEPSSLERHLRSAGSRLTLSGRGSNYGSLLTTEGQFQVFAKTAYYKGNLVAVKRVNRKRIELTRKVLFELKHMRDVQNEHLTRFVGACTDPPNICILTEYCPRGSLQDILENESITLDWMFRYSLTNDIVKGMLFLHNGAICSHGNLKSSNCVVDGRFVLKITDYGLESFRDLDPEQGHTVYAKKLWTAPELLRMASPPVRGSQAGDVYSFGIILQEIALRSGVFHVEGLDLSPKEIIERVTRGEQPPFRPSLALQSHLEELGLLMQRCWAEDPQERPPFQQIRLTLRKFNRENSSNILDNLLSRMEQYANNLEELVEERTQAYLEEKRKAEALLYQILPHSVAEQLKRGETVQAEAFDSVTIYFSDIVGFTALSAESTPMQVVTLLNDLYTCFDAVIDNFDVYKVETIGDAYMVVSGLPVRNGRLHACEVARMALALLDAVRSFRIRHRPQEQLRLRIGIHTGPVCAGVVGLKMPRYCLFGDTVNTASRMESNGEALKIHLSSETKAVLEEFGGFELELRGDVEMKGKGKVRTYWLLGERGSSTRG

B1: Construct 1-16 (peptide)
peptide: [Nle]AHFGGR[Nle]DRISAY[keto‑piperazine surrogate]
modifications: reading uncertain; also: further groups not given here
notes: Linear synthetic construct modelled on mini-ANP

Tests used:
[1] = design: species or system Sprague-Dawley rats; conditions: rat, in vivo, iv, 2 mg/kg
Experimental: . […] The total run time was 6 minutes.

[2] = target: T1, human natriuretic peptide receptor A; assay: cell-based or functional assay
[3] = target: T1, human natriuretic peptide receptor A; assay: competitive inhibition of [125I]-ANP binding to HEK-hNPRA membrane homogenates
Experimental: Competitive binding assay. A competitive inhibition binding assay was performed using crude membrane homogenates prepared from HEK-hNPRA cells. To prepare membrane homogenates, cells were rinsed with phosphate-buffered saline and incubated for 15 minutes at 4° C. in hypotonic lysis buffer (10 mM Tris, pH 7.4+5 mM EDTA). Cells were transferred from plates to polypropylene tubes and homogenized. Homogenates were centrifuged at 25,000×g for 20 minutes. Pellets were resuspended in buffer consisting of 50 mM Tris (pH 7.4) and 1 mM EDTA, homogenized and centrifuged at 25,000×g for 20 minutes. Pellets were resuspended in buffer consisting of 100 mM Tris (pH 7.4) and 10 mM MgCl_2 and stored at −80° C. until needed. On the day of an assay, homogenates were thawed and homogenized. […] Assays were stopped by addition of cold wash buffer (phosphate-buffered saline) followed by filtration using a vacuum manifold. Bound radioactivity was determined using a gamma counter. […] Data were analyzed using GraphPad Prism® curve-fitting software.

Row | Molecule | AUC [1] | Vd [1] | clearance [1] | half-life [1] | EC50 (accumulation of intracellular cGMP) [2] | Ki [3]
1 | CCCC[C@@H]1NC[C@H](C(=O)N[C@@H](C)C(=O)N[C@@H](Cc2c[nH]cn2)C(=O)N[C@@H](Cc2ccccc2)C(=O)NCC(=O)NCC(=O)N[C@@H](CCCNC(=N)N)C(=O)N[C@@H](CCCC)C(=O)N[C@@H](CC(=O)O)C(=O)N[C@@H](CCCNC(=N)N)C(=O)N[C@H](C(=O)N[C@@H](CO)C(=O)N[C@@H](C)C(=O)N[C@@H](Cc2ccc(O)cc2)C(=O)N2C[C@H](C(N)=O)NC(=O)[C@@H]2CCCNC(=N)N)[C@@H](C)CC)NC1=O [Construct 1-30] ({Piperazin2one(3S-Bu,6R-CO)}-AHFGGR[Nle]DRISAY-X1) | 0.139 µM·h | 0.6 L/kg | 131 mL/min/kg | 6 min | – | –
2 | B1 | – | – | – | – | 340 nM | 88.5 nM
3 | [keto‑piperazine surrogate]AHFGGR[Nle]DRISAYR (reading uncertain; also: further groups not given here, Linear synthetic construct) [Construct 1-9] | – | – | – | – | 550 nM | 14.5 nM
4 | [keto‑piperazine surrogate]AHFGGR[Nle]DRISAY[keto‑piperazine surrogate] (reading uncertain; also: further groups not given here, Linear synthetic construct) [Construct 1-30] | – | – | – | – | 80.5 nM | 8.7 nM
5 | [keto‑piperazine surrogate]AHFGGR[Nle]DRISAY[keto‑piperazine surrogate] (reading uncertain; also: further groups not given here, Linear synthetic construct) [Construct 1-49] | – | – | – | – | ~12 nM | 0.2 nM
